Experimental data: PMC10115629, “Structural basis for GSDMB pore formation and its targeting by IpaH7.8” (Nature, 2023)

B1: human GSDMB isoform 1 construct for cryo-EM, 3C protease site inserted after K239 (uncleaved, full length) (natural protein)
chain: MFSVFEEITRIVVKEMDAGGDMIAVRSLVDADRFRCFHLVGEKRTFFGCRHYTTGLTLMDILDTDGDKWLDELDSGLQGQKAEFQILDNVDSTGELIVRLPKEITISGSFQGFHHQKIKISENRISQQYLATLENRKLKRELPFSFRSINTRENLYLVTETLETVKEETLKSDRQYKFWSQISQGHLSYKHKGQREVTIPPNRVLSYRVKQLVFPNKETMSAGLDIHFRGKTKSFPEGKLEVLFQGPSLGSEDSRNMKEKLEDMESVLKDLTEEKRKDVLNSLAKCLGKEDIRQDLEQRVSEVLISGELHMEDPDKPLLSSLFNAAGVLVEARAKAILDFLDALLELSEEQQFVAEALEKGTLPLLKDQVKSVMEQNWDELASSPPDMDYDPEARILCALYVVVSILLELAEGPTSVSS
notes: human gasdermin B isoform 1 (Q8TAX9-1), full length, with a human rhinovirus 3C protease site (LEVLFQ/GP) inserted after residue K239; The methods say the 3C site is in 'the GSDMB construct used for cryo-EM structural determination'; source: E. coli BL21 (DE3), co-expressed with IpaH7.8, complex purified (Ni-NTA, Hitrap Q, Superdex 200); not shown: His6-SUMO, N-terminal, cleaved
B3: Shigella flexneri IpaH7.8 without affinity tag (co-expressed with GSDMB) (enzyme)
chain: MFSVNNTHSSVSCSPSINSNSTSNEHYLRILTEWEKNSSPGEERGIAFNRLSQCFQNQEAVLNLSDLNLTSLPELPKHISALIVENNKLTSLPKLPAFLKELNADNNRLSVIPELPESLTTLSVRSNQLENLPVLPNHLTSLFVENNRLYNLPALPEKLKFLHVYYNRLTTLPDLPDKLEILCAQRNNLVTFPQFSDRNNIRQKEYYFHFNQITTLPESFSQLDSSYRINISGNPLSTRVLQSLQRLTSSPDYHGPQIYFSMSDGQQNTLHRPLADAVTAWFPENKQSDVSQIWHAFEHEEHANTFSAFLDRLSDTVSARNTSGFREQVAAWLEKLSASAELRQQSFAVAADATESCEDRVALTWNNLRKTLLVHQASEGLFDNDTGALLSLGREMFRLEILEDIARDKVRTLHFVDEIEVYLAFQTMLAEKLQLSTAVKEMRFYGVSGVTANDLRTAEAMVRSREENEFTDWFSLWGPWHAVLKRTEADRWAQAEEQKYEMLENEYSQRVADRLKASGLSGDADAEREAGAQVMRETEQQIYRQLTDEVLALRLSENGSRLHHS
notes: only the LRR domain is visible in the map; source: E. coli BL21 (DE3), co-expressed with His6-SUMO-GSDMB, complex purified (Ni-NTA, Hitrap Q, Superdex 200)

Tests used:
[1] = target: human GSDMB (isoform 1, Q8TAX9-1), full length (human); test: ITC; VP-ITC, 20 °C, 25 mM Tris-HCl pH 8.0, 150 mM NaCl; IpaH7.8 (200 μM) injected into GSDMB (10 μM), or IpaH7.8 (625 μM) into hGSDMD or mGSDMD (40 μM); 25 injections; one-site binding model
[2] = target: B3; test: cryo-EM structure; GSDMB-IpaH7.8 complex co-expressed in E. coli and co-purified, 0.5 mg/ml, 25 mM HEPES pH 7.5, 150 mM NaCl; 3.8 Å; details: both partners purified
[3] = target: the molecule itself; test: cryo-EM structure; GSDMB isoform 1 cleaved by 3C protease on liposomes, pores solubilised with C12E8 and purified on Superose 6; C24 symmetry, 4.96 Å (globular domain 4.48 Å)
[4] = target: T1, human GSDMD, full length (human), P57764; test: ITC; VP-ITC, 20 °C, 25 mM Tris-HCl pH 8.0, 150 mM NaCl; IpaH7.8 (200 μM) injected into GSDMB (10 μM), or IpaH7.8 (625 μM) into hGSDMD or mGSDMD (40 μM); 25 injections; one-site binding model; details: remark: other sources report otherwise
T1 chain: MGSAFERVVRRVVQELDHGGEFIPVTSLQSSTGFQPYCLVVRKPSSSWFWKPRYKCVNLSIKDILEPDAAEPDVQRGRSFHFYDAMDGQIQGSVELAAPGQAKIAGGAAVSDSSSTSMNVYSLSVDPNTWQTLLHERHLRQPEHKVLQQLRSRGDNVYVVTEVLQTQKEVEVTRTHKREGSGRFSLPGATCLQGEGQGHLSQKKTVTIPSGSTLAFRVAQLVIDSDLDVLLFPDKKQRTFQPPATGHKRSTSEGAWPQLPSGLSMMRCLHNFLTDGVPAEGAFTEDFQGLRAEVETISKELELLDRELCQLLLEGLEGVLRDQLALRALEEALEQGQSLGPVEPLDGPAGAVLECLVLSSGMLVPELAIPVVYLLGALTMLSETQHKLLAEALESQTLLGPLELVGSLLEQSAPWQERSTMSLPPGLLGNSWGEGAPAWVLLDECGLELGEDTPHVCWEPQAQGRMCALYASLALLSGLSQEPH

[5] = target: B1; test: cryo-EM structure; GSDMB-IpaH7.8 complex co-expressed in E. coli and co-purified, 0.5 mg/ml, 25 mM HEPES pH 7.5, 150 mM NaCl; 3.8 Å; details: both partners purified

## Shigella flexneri IpaH7.8 (wild type), C-terminal 6XHis construct (from UniProt P18014 1-565) (enzyme)
[1]
  Kd: 440 nM

## B1
[2]
  binding result: binds

B2: GSDMB isoform 1 pore subunit (N-terminal domain after 3C protease cleavage) (domain or fragment)
chain: MFSVFEEITRIVVKEMDAGGDMIAVRSLVDADRFRCFHLVGEKRTFFGCRHYTTGLTLMDILDTDGDKWLDELDSGLQGQKAEFQILDNVDSTGELIVRLPKEITISGSFQGFHHQKIKISENRISQQYLATLENRKLKRELPFSFRSINTRENLYLVTETLETVKEETLKSDRQYKFWSQISQGHLSYKHKGQREVTIPPNRVLSYRVKQLVFPNKETMSAGLDIHFRGKTKSFPEGKLEVLFQ
notes: human gasdermin B isoform 1 (Q8TAX9-1), from the start to K239, after which the 3C site was inserted; what is left of the 3C protease site (LEVLFQ/GP) after cleavage; Pores were 24-26-fold symmetric; GSDMB-C was removed by size exclusion; also called GSDMB pore; GSDMB prepore; source: E. coli BL21 (DE3), purified; cleaved by 3C protease on liposomes, pores extracted with C12E8 and purified on …
[3]
  stoichiometry N: 24

## B3
[4]
  Kd: 20.4 µM
[5]
  stoichiometry N: 1
